{
  "source": "paper PMC5061333",
  "biological_target": "ASC (UniProt Q9ULZ3)",
  "sequence (Q9ULZ3 whole entry)": "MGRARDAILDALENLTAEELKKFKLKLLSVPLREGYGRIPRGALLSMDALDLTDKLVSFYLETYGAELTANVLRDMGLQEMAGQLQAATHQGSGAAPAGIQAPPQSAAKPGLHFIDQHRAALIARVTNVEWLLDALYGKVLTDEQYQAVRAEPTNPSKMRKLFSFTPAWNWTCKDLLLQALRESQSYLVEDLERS",
  "assay": "EMSA",
  "settings": "EMSA: 100 mM Tris, 500 mM NaCl, 10 mM DTT, pH 7, 15°C 30 min; 3-5 μg DNA, 0.2-0.65 μg recombinant protein or 5 μg nuclear extract; 6% native PAGE",
  "data": [
    {"sequence": "ATTTATATAGCTTCTCAGCCTCGAATGTGGAAATAGGTGACTCATTTGAGTGTTTTCTTTCTTTTTAGAGTCTACAGAACTTTGAAAGTATGTGTTATTTTTCATTAACTAAAACGAGGAAGTATTACATCGTTATTGGCAGGAAGCACACAATGTATTTGTCTTTCAAAGGATTTTTTTTTCTGTCTGCTGCATAAATTGACTCCATGAGAAACCTCATTTTTTTGCCAAAGTCAAATGACTGCTCTCATAGGTATCA (double strand) [MMP7 promoter P1]", "values": [
      {"measurement": "binding", "value": "binds"}
    ]}
  ]
}
